Tests used:
[1] = target: T1, PSMA (prostate-specific membrane antigen) extracellular domain (Homo sapiens, UniProt Q04609 SEQ:23-728); experiment: filter; dot blot; max bound 22%
Experimental: (§1) Dot Blot Binding Analysis. Dot blot binding assays were performed throughout the selections to monitor the protein binding affinity of the pools. For initial pool screening, trace ³²P-labeled pool RNA was combined with PSMA and incubated at room temperature for 30 min in 1×SHMCK buffer pH 7.4 (20 mM Hepes pH 7.4, 120 mM NaCl, 5 mM KCl, 1 mM MgCl₂, […]) plus 0.1 mg/mL tRNA in a final volume of 30 μl. The mixture was applied to a dot blot apparatus (Schleicher and Schuell Minifold-1 Dot Blot, Acrylic, Keene, N.H.), assembled (from top to bottom) with nitrocellulose, nylon, and gel blot membranes. RNA that is bound to protein is captured on the nitrocellulose filter; whereas the non-protein bound RNA is captured on the nylon filter. […] The Round 9 pool was cloned and screened in a single point dot blot assay using 100 nM PSMA (0 nM PSMA was used as a negative control). Clone transcripts were 5′end labeled with ³²-P ATP. Likely binders were than assayed for KD determination by the blot assay conditions described directly above, but without tRNA, using an 8 point PSMA titration with a constant RNA concentration. […] Both of the clones screened were unique sequences in the Round 9 selection pool.
(§2) In order to identify the core structural elements required for ARC955 binding to PSMA, the 3′-boundaries of the clone was determined through alkaline hydrolysis.

[2] = target: T1, PSMA (prostate-specific membrane …); experiment: filter; no binding in dot blot
Experimental: as §1, §2

[3] = target: T1, PSMA (prostate-specific membrane …); experiment: filter; dot blot without tRNA; conditions: hairpin with conserved 16-nt loop, A-rich asymmetric bulge
[4] = target: T1, PSMA (prostate-specific membrane …); experiment: inhibition; NAALADase inhibition, 40 mM Tris pH 7.4, 0.1 mM ZnSO4, 37 C; conditions: hairpin with conserved 16-nt loop, A-rich asymmetric bulge
[5] = target: T1, PSMA (prostate-specific membrane …); experiment: FP filter; dot blot, nitrocellulose; max bound 33%
Experimental: as §1, §2

[6] = target: T1, PSMA (prostate-specific membrane …); experiment: filter; dot blot; max bound 52%
Experimental: as §1, §2

[7] = target: T1, PSMA (prostate-specific membrane …); experiment: filter; dot blot, 1x SHMCK pH 7.4 (1 mM Mg, Ca), room temp, no tRNA; conditions: label: 32P 5'-end

T1 sequence (Q04609 45-750): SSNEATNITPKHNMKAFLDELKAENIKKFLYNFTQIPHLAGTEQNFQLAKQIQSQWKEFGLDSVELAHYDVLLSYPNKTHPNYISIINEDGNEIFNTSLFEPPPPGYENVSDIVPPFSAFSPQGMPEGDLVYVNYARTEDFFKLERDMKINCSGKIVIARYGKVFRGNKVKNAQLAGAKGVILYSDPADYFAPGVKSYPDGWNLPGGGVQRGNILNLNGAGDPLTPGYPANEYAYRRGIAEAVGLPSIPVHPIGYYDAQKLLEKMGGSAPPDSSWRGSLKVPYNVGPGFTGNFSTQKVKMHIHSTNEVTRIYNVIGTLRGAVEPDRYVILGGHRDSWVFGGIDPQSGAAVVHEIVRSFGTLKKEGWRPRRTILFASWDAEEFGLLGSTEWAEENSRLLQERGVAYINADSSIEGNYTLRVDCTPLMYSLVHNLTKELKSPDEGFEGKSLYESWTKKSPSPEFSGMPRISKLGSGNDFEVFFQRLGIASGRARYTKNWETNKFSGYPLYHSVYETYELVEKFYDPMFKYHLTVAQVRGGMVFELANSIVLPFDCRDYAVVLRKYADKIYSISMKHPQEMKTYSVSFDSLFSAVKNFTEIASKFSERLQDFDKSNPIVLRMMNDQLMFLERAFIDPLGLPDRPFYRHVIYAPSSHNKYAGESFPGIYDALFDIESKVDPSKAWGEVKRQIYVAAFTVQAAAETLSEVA

CUACUGGGUGGCUGGGAGGGGAAGAGGGAGUAG (ssRNA, 2'-OMe A, C, U; 2'-OH G (rGmH)) [ARC1089]
Kd [1]: 9.3 nM

CUACUACACAUGGGUCGGGUGAGUGGCAAAGGAAUAGUAG (ssRNA, 2'-OMe A, C, U; 2'-OH G (rGmH)) [ARC725]
binding result [2]: no binding

GGAGGACCGAAAAAGACCUGACUUCUAUACUAAGUCUACGUUCCUCCA (ssRNA, 2'-F C and U; 2'-OH A and G) [ARC591]
Kd [3]: 3.4 nM
IC50 [4]: 6.7 nM

GGGUGGCUGGGAGGGGAAGAGGG (ssRNA, 2'-OMe A, C, U; 2'-OH G (rGmH)) [ARC1088]
Kd [5]: 2.1 nM

AGAGGAGAGAACGUUCUACUAUGGGUGGCUGGGAGGGG (ssRNA, 2'-OMe A, C, U; 2'-OH G (rGmH)) [ARC1091]
Kd [6]: 3.1 nM

B1: ARC956 (G8) (ssRNA)
RNA: GGGGAGAGGAGAGAACGUUCUACACAUGGGUCGGGUGAGUGGCAAAGGAAUAGGUCGAUCGAUCGAUCAUCGAUG
modifications: 2'-OMe A, C, U; 2'-OH G (rGmH)
Kd [7]: 16 nM

B2: ARC955 (G2) (ssRNA)
RNA: GGGAGAGGAGAGAACGUUCUACUAUGGGUGGCUGGGAGGGGAAGAGGGAGUAGGUCGAUCGAUCGAUCAUCGAUG
modifications: 2'-OMe A, C, U; 2'-OH G (rGmH)
Kd [7]: 9 nM
